Reference: paper PMC4273445 (eLife, 2014)

How the values were obtained:
Test in all cases: SPR
[1] = molecular target: fHbp 1.P15 (N. meningitidis) (UniProt E6MV22)
[2] = molecular target: fHbp 1.P276 (N. meningitidis) (UniProt E6MV22)
[3] = molecular target: fHbp 1.P5 (N. meningitidis) (UniProt E6MV22)
[4] = molecular target: fHbp 1.P9 (N. meningitidis) (UniProt E6MV22)
[5] = molecular target: fHbp V1.1 Asp262 to Ala (N. meningitidis)
[6] = molecular target: fHbp V1.1 Glu157 to Ala (N. meningitidis)
[7] = molecular target: fHbp V1.1 His248 to Ala (N. meningitidis)
[8] = molecular target: fHbp V1.1 Ile154 to Ala (N. meningitidis)
[9] = molecular target: fHbp V1.1 Ile179 to Ala (N. meningitidis)
[10] = molecular target: fHbp V1.1 Lys107 to Ala (N. meningitidis)
[11] = molecular target: fHbp V1.1 Lys191 to Ala (N. meningitidis)
[12] = molecular target: fHbp V1.1 Lys92 to Ala (N. meningitidis)
[13] = molecular target: fHbp V1.1 Phe292 to Ala (N. meningitidis)
[14] = molecular target: fHbp V1.1 Pro265 to Ala (N. meningitidis)
[15] = molecular target: fHbp V1.1 Ser104 to Ala (N. meningitidis)
[16] = molecular target: fHbp V1.1 Ser185 to Ala (N. meningitidis)
[17] = molecular target: fHbp V1.1 Ser286 to Ala (N. meningitidis)
[18] = molecular target: fHbp V1.1 Ser288 to Ala (N. meningitidis)
[19] = molecular target: fHbp V1.1 Ser302 to Ala (N. meningitidis)
[20] = molecular target: fHbp V2.21 Ala (at V1 Pro265) to Pro (N. meningitidis)
[21] = molecular target: fHbp V2.21 Asn (at V1 Asn108) to Ala (N. meningitidis)
[22] = molecular target: fHbp V2.21 Gln (at V1 Gln103) to Ala (N. meningitidis)
[23] = molecular target: fHbp V2.21 His (at V1 Ser288) to Ala (N. meningitidis)
[24] = molecular target: fHbp V2.21 Ile (at V1 Ile147) to Ala (N. meningitidis)
[25] = molecular target: fHbp V2.21 Ile (at V1 Ile154) to Ala (N. meningitidis)
[26] = molecular target: fHbp V2.21 Ile (at V1 Ile179) to Ala (N. meningitidis)
[27] = molecular target: fHbp V2.21 Ser (at V1 Ser104) to Ala (N. meningitidis)
[28] = molecular target: fHbp V2.21 Val (at V1 Ile311) to Ala (N. meningitidis)
[29] = molecular target: fHbp V3.28 Asp (at V1 Glu183) to Ala (N. meningitidis)
[30] = molecular target: fHbp V3.28 Gln (at V1 Lys107) to Ala (N. meningitidis)
[31] = molecular target: fHbp V3.28 Ile (at V1 Ile179) to Ala (N. meningitidis)
[32] = molecular target: fHbp V3.28 Ile (at V1 Ile273) to Ala (N. meningitidis)
[33] = molecular target: fHbp V3.28 Leu (at V1 Leu156) to Ala (N. meningitidis)
[34] = molecular target: fHbp V3.28 Leu (at V1 Ser274) to Ala (N. meningitidis)
[35] = molecular target: fHbp V3.28 Lys (at V1 Lys306) to Ala (N. meningitidis)
[36] = molecular target: fHbp V3.28 Lys (at V1 Lys92) to Ala (N. meningitidis)
[37] = molecular target: fHbp V3.28 Pro (at V1 Ser182) to Ala (N. meningitidis)
[38] = molecular target: fHbp V3.28 Ser (at V1 Gln193) to Ala (N. meningitidis)
[39] = molecular target: fHbp V3.28 Ser (at V1 Ser104) to Ala (N. meningitidis)
[40] = molecular target: fHbp V3.28 Ser (at V1 Ser302) to Ala (N. meningitidis)
[41] = molecular target: fHbp V3.28 Val (at V1 Ile311) to Ala (N. meningitidis)
[42] = molecular target: factor H binding protein (fHbp) V2.21 (N. meningitidis) (UniProt E6MV22)
[43] = molecular target: fHbp V2.21 Glu (at V1 Asp262) to Ala (N. meningitidis)
[44] = molecular target: fHbp V2.21 Glu (at V1 His313) to Ala (N. meningitidis)
[45] = molecular target: fHbp V2.21 Phe (at V1 Phe292) to Ala (N. meningitidis)
[46] = molecular target: fHbp V2.21 Val (at V1 Leu171) to Ala (N. meningitidis)
[47] = molecular target: fHbp V3.28 Leu (at V1 Arg195) to Ala (N. meningitidis)
[48] = molecular target: factor H binding protein (fHbp) V1.1 (N. meningitidis) (UniProt Q9JXV4)

Chain of CFH67, CCP domains 6 and 7 of complement factor H (P08603 321-443): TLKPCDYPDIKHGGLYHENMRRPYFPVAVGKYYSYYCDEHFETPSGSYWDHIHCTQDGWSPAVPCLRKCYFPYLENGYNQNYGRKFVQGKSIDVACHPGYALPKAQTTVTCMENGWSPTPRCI

In the case of “CFH67, CCP domains 6 and 7 of complement factor H (from UniProt P08603 321-443) (domain or fragment)”, the Kd [1] is reported as 11.7 nM, the Kd [2] is reported as 8.9 nM and the Kd [3] is reported as 4.8 nM. For the same substance, the Kd [4] was 4.87 nM, the Kd [5] was 6.54 nM and the Kd [6] was 20.7 nM. It also gave a Kd [7] of 3.36 nM, a Kd [8] of 7.69 nM and a Kd [9] of 8.06 nM. The Kd [10] was 9.59 nM, the Kd [11] was 6.4 nM and the Kd [12] was 4.4 nM. The Kd [13] was 6.8 nM, the Kd [14] was 3.62 nM and the Kd [15] was 9.78 nM. It also gave a Kd [16] of 3.09 nM, a Kd [17] of 11.3 nM and a Kd [18] of 2.87 nM. For the same substance, the Kd [19] was 0.592 nM, the Kd [20] was 3.7 nM and the Kd [21] was 3.82 nM. For the same substance, the Kd [22] was 6.01 nM, the Kd [23] was 6.77 nM and the Kd [24] was 3.58 nM. For the same substance, the Kd [25] was 25.8 nM, the Kd [26] was 12 nM and the Kd [27] was 2.52 nM. The Kd [28] was 6.07 nM, the Kd [29] was 5.96 nM and the Kd [30] was 46.4 nM. For the same substance, the Kd [31] was 9.91 nM, the Kd [32] was 0.201 nM and the Kd [33] was 28.8 nM. It also gave a Kd [34] of 18.5 nM, a Kd [35] of 10.7 nM and a Kd [36] of 2.67 nM. The Kd [37] was 3.06 nM, the Kd [38] was 4.14 nM and the Kd [39] was 8.99 nM. For the same substance, the Kd [40] was 6.18 nM, the Kd [41] was 30.3 nM and the Kd [42] was 1.87 nM.

“CFHR3_(12), the first two (N-terminal) CCP domains of complement factor H-related 3 (from UniProt Q02985 19-330) (domain or fragment)” showed a Kd [1] of 56.4 nM, a Kd [2] of 37.9 nM and a Kd [3] of 55.2 nM. It also gave a Kd [4] of 41.1 nM, a Kd [5] of 89.2 nM and a Kd [7] of 82.5 nM. For the same substance, the Kd [8] was 147 nM, the Kd [9] was 1270 nM and the Kd [10] was 174 nM. The Kd [11] was 91 nM, the Kd [12] was 71.9 nM and the Kd [14] was 130 nM. The Kd [15] was 382 nM, the Kd [16] was 78.5 nM and the Kd [17] was 93.6 nM. The Kd [18] was 57.5 nM, the Kd [19] was 17.2 nM and the Kd [20] was 4.12 nM. It also gave a Kd [21] of 4.26 nM, a Kd [22] of 4.01 nM and a Kd [43] of 5.43 nM. The Kd [44] was 0.723 nM, the Kd [23] was 7.63 nM and the Kd [24] was 8.22 nM. The Kd [25] was 14.8 nM, the Kd [26] was 7.84 nM and the Kd [45] was 19.4 nM. For the same substance, the Kd [27] was 4.91 nM, the Kd [28] was 9.68 nM and the Kd [46] was 9.81 nM. For the same substance, the Kd [29] was 4.88 nM, the Kd [30] was 25.3 nM and the Kd [31] was 6.98 nM. For the same substance, the Kd [32] was 0.292 nM, the Kd [47] was 1.76 nM and the Kd [33] was 51.9 nM. For the same substance, the Kd [34] was 20.3 nM, the Kd [35] was 9.34 nM and the Kd [36] was 3.39 nM. For the same substance, the Kd [37] was 3.24 nM, the Kd [38] was 3.03 nM and the Kd [39] was 7.19 nM. The Kd [40] was 7.64 nM, the Kd [41] was 36.3 nM and the Kd [48] was 59.4 nM. The Kd [42] was 3.73 nM.
